These results are taken from US20110059095A1 (Regeneron, published 2011).

The EC50 is the concentration giving half of the maximal effect. Usually Kd stands for the concentration at which binding is half-saturated.

For assay [1], the target named is T1, full length human PAR-2 (human, UniProt P55085 26-397).
T1 construct: overexpressed on HEK293-derived 293/D9 cells; also called 293/D9/hPAR-2rec cells
The assay is described as follows: MSD cell binding. The method, then:
HEK293 cells were transfected with an NF-κB-luciferase-IRES-eGFP reporter plasmid. […] A clonal cell line, named D9, having low background levels of luciferase activity and high levels of eGFP when induced with IL-1β was made by a series of successive sorts of cell populations using flow cytometry. The 293/D9 cell line was then separately transfected with human PAR-2 or mouse PAR-2 to create the stable cell lines 293/D9/h PAR-2rec and 293/D9/m PAR-2rec, respectively.
Cells were plated on MSD high-bind 96 well plates at a density of 4×10⁴ cells/well in PBS and incubated for one hour at room temperature. Cells were then blocked in PBS with 2% BSA and incubated at room temperature for one hour. Anti-PAR-2 antibodies (ranging from 100 nM to 0.098 nM) were serially diluted two-fold in PBS with 0.5% BSA and incubated with the cells for one hour at room temperature followed by washing in PBS with 0.5% BSA. Sulfo-tagged anti-human IgG antibody (MSD) at a concentration of 0.1 μg/ml was then added to the cell/antibody mixture and incubated at room temperature for an additional hour. After another wash, a 1× non-surfactant containing read buffer was added and electro-chemiluminescent signal was read on the MSD Sector Imager. Signal of antibody binding to 293/D9 cells was subtracted from signal to 293/D9/hPAR-2rec or 293/D9/mPAR-2rec cells. Subtracted data were analyzed using a sigmoidal dose-response model in GraphPad Prism and EC₅₀ and Bₘₐₓ values were reported (Table 18). EC₅₀ values are defined as the antibody concentration required to achieve 50% maximal binding (Bₘₐₓ) to cells.

In assay [2] the target is T2, Peptide G (rat PAR-2), N-terminal biotinylated (Rat (Rattus norvegicus), N-terminal biotin via G4S linker).
T2 construct: also called Peptide G N-Term
T2 peptide: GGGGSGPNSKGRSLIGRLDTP
The assay is described as follows: peptide ELISA titration. The method, then: (§1) Anti-PAR-2 antibodies were tested for their ability to bind to the PAR-2 peptides. Various PAR-2 Peptides (Table 3) were coated onto 96-well plates at a concentration of 2 μg/ml and incubated overnight followed by blocking in a suitable blocking agent for one hour. […] Purified anti-PAR-2 antibodies were added to the plate coated with PAR-2 peptides to a final concentration ranging from 0.2 to 2.0 μg/ml and incubated for one hour at room temperature. Detection of bound antibodies was determined with Horse-Radish Peroxidase (HRP) conjugated anti-mouse or human IgG (Jackson Immuno Research Lab, West Grove, Pa.) and developed by standard colorimetric response using tetramethylbenzidine (TMB) substrate. Absorbance was read at OD₄₅₀ for 0.1 second.
(§2) In another experiment, selected anti-PAR-2 antibodies cloned onto human IgG4 were tested for binding to unbiotinylated and biotinylated forms of PAR-2 peptides (Peptides A, E, F and G; as described above). […] Absorbance values at 450 nm were analyzed using a sigmoidal dose-response model in GraphPad Prism (GraphPad Software, Inc., La Jolla, Calif.) and EC₅₀ values were reported (Table 9). EC₅₀ values are defined as the antibody concentration required to achieve 50% maximal binding to PAR-2 peptide.
In general terms: ELISA stands for enzyme-linked immunosorbent assay.

In assay [3] the target is T3, Peptide G (rat PAR-2), unbiotinylated (Rat (Rattus norvegicus)).
T3 construct: also called Peptide G No Biotin
T3 peptide: GPNSKGRSLIGRLDTP
The assay is described as follows: peptide ELISA titration. As to the method:
as §1, §2

The target in assay [4] is T4, Peptide E (mouse PAR-2), unbiotinylated (Mouse (Mus musculus)).
T4 construct: also called Peptide E No Biotin
T4 peptide: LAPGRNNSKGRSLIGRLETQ
The assay is described as follows: peptide ELISA titration. As to the method:
as §1, §2

For assay [5], the target named is T5, Peptide F (monkey PAR-2), N-terminal biotinylated (Monkey (Macaca mulatta), N-terminal biotin via G4S linker).
T5 construct: also called Peptide F N-Term
T5 sequence (peptide, as listed by the source): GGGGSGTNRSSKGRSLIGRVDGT
The assay is described as follows: peptide ELISA titration. The method, then: as §1, §2

Assay [6] addresses T6, Peptide E (mouse PAR-2), N-terminal biotinylated (Mouse (Mus musculus), N-terminal biotin via G4S linker).
T6 construct: also called Peptide E N-Term
T6 peptide: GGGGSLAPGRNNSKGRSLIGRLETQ
The assay is described as follows: peptide ELISA titration. As to the method:
as §1, §2

Assay [7] has as its target T7, Peptide G (rat PAR-2), C-terminal biotinylated (Rat (Rattus norvegicus), C-terminal biotin via G4S linker).
T7 construct: also called Peptide G C-Term
T7 peptide: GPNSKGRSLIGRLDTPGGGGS
The assay is described as follows: peptide ELISA titration. The method, then: as §1, §2

For assay [8], the target named is T8, Peptide A (human PAR-2), N-terminal biotinylated (Human, N-terminal biotin via G4S linker).
T8 construct: also called Peptide A N-Term
T8 peptide: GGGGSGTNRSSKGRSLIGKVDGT
The assay is described as follows: peptide ELISA titration. The method, then: as §1, §2

For assay [9], the target named is T9, Peptide A (human PAR-2), C-terminal biotinylated (Human, C-terminal biotin via G4S linker).
T9 construct: also called Peptide A C-Term
The assay is described as follows: peptide ELISA titration. As to the method:
as §1, §2

For assay [10], the target named is T10, Peptide A (human PAR-2), unbiotinylated (Human).
T10 construct: also called Peptide A No Biotin
T10 peptide: GTNRSSKGRSLIGKVDGT
The assay is described as follows: peptide ELISA titration. As to the method:
as §1, §2

The target in assay [11] is T10, Peptide A (human PAR-2), unbiotinylated. The assay is described as follows: SPR, antibody captured. (In general: Surface plasmon resonance follows binding to a sensor surface in real time, without labels.)
Assay [12] has as its target T1, full length human PAR-2. The assay is described as follows: cell-based or functional assay.
The target of assay [13] is T10, Peptide A (human PAR-2), unbiotinylated. The assay is described as follows: SPR, antibody captured, steady state. The method, then: (§3) Equilibrium dissociation constants (KD values) for antigen binding to selected purified PAR-2 antibodies were determined by surface kinetics using a real-time surface plasmon resonance biosensor assay. Antibody was captured on either a rabbit anti-mouse IgG polyclonal antibody (GE Healthcare, Piscataway, N.J.) surface or a goat anti-human IgG polyclonal antibody (Jackson Immuno Research Lab, West Grove, Pa.) surface created through direct amine chemical coupling to a BIACORE™ CM5 sensor chip to form a captured antibody surface. […] Antigen-antibody binding and dissociation were monitored in real time at room temperature. Kinetic analysis was performed to calculate KD and half-life of antigen/antibody complex dissociation (Table 10). For those antibodies where no T_{1/2} value is shown, steady state analysis was used to calculate the KD value. NB: no binding observed under current experimental conditions. ND: not determined.

The target in assay [14] is T11, Peptide B (human PAR-2), unbiotinylated (Human).
T11 construct: also called Peptide B No Biotin
T11 peptide: SLIGKVDGTSHVTG
The assay is described as follows: SPR, antibody captured; SPR at room temperature, monomeric peptide 15.6-250 nM injected over captured antibody. As to the method:
as §3

The target of assay [15] is T12, Peptide C (human PAR-2), C-terminal biotinylated (Human).
T12 construct: also called Peptide C C-Term
T12 peptide: SLIGKVGGGGS-biotin
The assay is described as follows: peptide ELISA.

The target in assay [16] is T13, Peptide C (human PAR-2), N-terminal biotinylated (Human).
T13 construct: also called Peptide C N-Term
T13 peptide: Biotin-GGGGSSLIGKV
The assay is described as follows: peptide ELISA.

In assay [17] the target is T8, Peptide A (human PAR-2), N-terminal …. The assay is described as follows: peptide ELISA.
The target in assay [18] is T9, Peptide A (human PAR-2), C-terminal …. The assay is described as follows: peptide ELISA.
The target in assay [19] is T10, Peptide A (human PAR-2), unbiotinylated. The assay is described as follows: peptide ELISA.

Where no end group is shown, it is not given here. The star is where a group is joined. Biotin = O=C1N[C@H]2[C@H](CS[C@H]2CCCCC(=O)*)N1

T1 sequence (P55085 26-397 G138A limits assumed): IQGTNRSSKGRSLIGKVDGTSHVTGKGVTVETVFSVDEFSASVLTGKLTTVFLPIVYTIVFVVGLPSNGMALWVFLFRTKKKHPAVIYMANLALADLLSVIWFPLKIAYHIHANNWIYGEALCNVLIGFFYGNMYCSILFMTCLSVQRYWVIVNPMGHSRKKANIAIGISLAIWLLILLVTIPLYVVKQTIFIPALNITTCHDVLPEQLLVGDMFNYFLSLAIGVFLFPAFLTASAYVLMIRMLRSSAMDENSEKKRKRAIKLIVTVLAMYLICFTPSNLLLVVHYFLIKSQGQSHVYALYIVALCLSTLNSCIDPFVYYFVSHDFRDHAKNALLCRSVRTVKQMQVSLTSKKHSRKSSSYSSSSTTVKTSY

B1: H4H580P (antibody, human IgG4, V domains shown)
VH: QVQLVESGGGVVQPGRSLRLSCVASGFTFSRYGMHWVRQAPGKGLEWVVVISYDGINKYYADSVKGRFTISRDNSKNTVYLQMNSLRAEDTAVYHCAKGDFWSGYFDYWGQGTLVTVSS
VL: DIVMTQTPLSSPVTLGQPASISCRSSQSLVHSDGNTYLSWLHQRPGQPPRLLIYKISNRFSGVPDRFSGSGAGTDFTLQISRVEAEDVGIYYCMQATQFPTFGGGTKVEIK
notes: also called H1H580P variable regions
Molecule B1 showed a Bmax in assay [1] of 30200 MSD Unit. In addition, the EC50 in assay [1] was 8.69 nM; in assay [2], 0.142 nM; in assay [3] it was 0.139 nM; in assay [4], 2.53 nM; in assay [5], 0.148 nM; in [6], 0.932 nM. The EC50 in assay [7] turned out to be 0.1 nM; in [8], 0.16 nM; in assay [9], 0.202 nM; in assay [10], 0.09 nM. In addition, the Kd in [11] turned out to be 103 nM. For the same molecule, the T1/2 in assay [11] turned out to be 0.88 min. Besides, the “IC50, NF-kB-luciferase, 20 nM Trypsin” value in [12] was 3.5 nM.

B2: H2M610N (antibody, V domains shown)
VH: EVQLVESGGNLVQPGRSLRLSCAASGFTFDDYAMHWVRQAPGKGLEWVSGISWNSGSRGYADSVKGRFTISRDNAKNSLYLQMNSLRTEDTAFYYCTKEDEAFDYWGQGTLVTVSS
VL: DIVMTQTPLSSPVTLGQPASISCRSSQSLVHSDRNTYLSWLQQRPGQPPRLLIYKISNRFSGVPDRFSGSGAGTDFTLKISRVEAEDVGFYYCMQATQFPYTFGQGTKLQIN
notes: chimeric: human variable, mouse constant domains
Take B2: the results for the Kd in assay [13] and in [14] were 71.3 nM and 360 nM, respectively. This molecule yielded a T1/2 in [14] of 0.8 min. In addition, the OD450 in assay [15] lay within 0 to 0.09 od; in [16] it was 0 to 0.09 od; in assay [17], 1 to 4 od; in assay [18], 1 to 4 od; in assay [19] it was 1 to 4 od.

B3: H4H573P (antibody, human IgG4, V domains shown)
VH: EVQLVESGGGLVQPGRSLRLSCAASGFTFDDYAMHWVRQGPGKGLEWVSGISWNGGSAGYADSVKGRFTISRDNAKNSLYLQLNSLRAEDTALYYCAKEDYAFDIWGQGTMVTVSS
VL: not shown
notes: also called H1H573P variable regions
Turning to B3, the concentration giving a half-maximal response (EC50) is 0.017 nM in assay [2]; 0.014 nM in [3]; 0.355 nM in assay [4]; 0.018 nM in assay [5]; 0.016 nM in assay [6]; 10.1 nM in [7]. Besides, the EC50 in assay [8] stood at 0.093 nM; in assay [9], 0.022 nM; in assay [10], 0.093 nM. The molecule further registered a Kd in assay [13] of 749 nM.
